# Test results published in US9926355 (NEW YORK UNIVERSITY, dated 2018).
# B1: N-terminally hexahistidine-tagged C-terminal tail peptide of FGF23 (S180 to I251) (peptide)
# peptide: SAEDDSERDPLNVLKPRARMTPAPASCSQELPSAEDNSPMASDPLGVVRGGRVNTHAGGTGPEGCRPFAKFI
# notes: also called FGF23^C-tail; not shown: N-terminal hexahistidine tag
# B2: N-terminally hexahistidine-tagged, mature form of human FGF23 (Y25 to I251), R176Q/R179Q (ligand)
# chain: YPNASPLLGSSWGGLIHLYTATARNSYHLQIHKNGHVDGAPHQTIYSALMIRSEDAGFVVITGVMSRRYLCMDFRGNIFGSHYFDPENCRFQHQTLENGYDVYHSPQYHFLVSLGRAKRAFLPGMNPPPYSQFLSRRNEIPLIHFNTPIPRQHTQSAEDDSERDPLNVLKPRARMTPAPASCSQELPSAEDNSPMASDPLGVVRGGRVNTHAGGTGPEGCRPFAKFI
# notes: also called native FGF23; wild-type FGF23; not shown: N-terminal hexahistidine tag
# B3: N-terminally hexahistidine-tagged, mature form of human FGF21 (H29 to S209) (ligand)
# chain: HPIPDSSPLLQFGGQVRQRYLYTDDAQQTEAHLEIREDGTVGGAADQSPESLLQLKALKPGVIQILGVKTSRFLCQRPDGALYGSLHFDPEACSFRELLLEDGYNVYQSEAHGLPLHLPGNKSPHRDPAPRGPARFLPLPGLPPALPEPPGILAPQPPDVGSSDPLSMVGPSQGRSPSYAS
# notes: also called native FGF21; not shown: N-terminal hexahistidine tag
# How the values were obtained:
# [1] = target: T1, ligand-binding domain of human FGFR1c (D142 to R365) (human, UniProt P11362 142-365); experiment: SPR; FGF23 C-tail peptide immobilized, increasing concentrations of FGFR1c ligand-binding domain
# T1 construct: range 142-365
# T1 sequence (looked up): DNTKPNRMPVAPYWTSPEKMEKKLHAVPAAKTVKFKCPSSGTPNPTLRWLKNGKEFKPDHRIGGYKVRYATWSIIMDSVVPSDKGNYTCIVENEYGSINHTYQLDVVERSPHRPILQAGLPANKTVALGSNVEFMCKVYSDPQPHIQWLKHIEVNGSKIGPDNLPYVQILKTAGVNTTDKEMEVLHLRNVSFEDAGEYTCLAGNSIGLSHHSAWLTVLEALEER
# Excerpt: (§1) FIGS. 10A-10D show overlays of SPR sensorgrams illustrating binding of FGFR1c to FGF2 (FIG. 10A), FGF19 (FIG. 10B), FGF21 (FIG. 10C), and FGF23 (FIG. 10D), and fitted saturation binding curves. Increasing concentrations of FGFR1c ligand-binding domain were passed over a biosensor chip containing immobilized FGF2, FGF19, FGF21, or FGF23. […] Increasing concentrations of αKlotho-FGFR1c complex were passed over a biosensor chip containing immobilized FGF23. […] FGF2^3C-tail was immobilized on a biosensor chip and increasing concentrations of FGFR1c ligand-binding domain were passed over the chip. Dissociation constants (K_Ds) given in FIGS. 10A-10E were derived from the saturation binding curves.
# (§2) Example 2—Analysis of FGF-Heparin and FGF-FGFR-α/Klotho Interactions by Surface Plasmon Resonance Spectroscopy Surface plasmon resonance (SPR) experiments were performed on a Biacore 2000 instrument (Biacore AB), and the interactions were studied at 25° C. in HBS-EP buffer (10 mM HEPES-NaOH, pH 7.4, 150 mM NaCl, 3 mM EDTA, 0.005% (v/v) polysorbate 20). To study endocrine FGF-heparin interactions, a heparin chip was prepared by immobilizing biotinylated heparin (Sigma-Aldrich) on flow channels of a research-grade streptavidin chip (Biacore AB). The coupling density was ~5 fmol mm^-2 of flow channel. […]
# [2] = target: T1, ligand-binding domain of human FGFR1c …; experiment: SPR; FGF23 immobilized, increasing concentrations of FGFR1c ligand-binding domain; KD only in the figure
# Excerpt: as §1, §2
# [3] = target: T1, ligand-binding domain of human FGFR1c …; experiment: SPR; immobilized FGF21, FGFR1c ligand-binding domain in solution
# Excerpt: as §1, §2
binder,measurement,setting,value
B1,binding result,[1],no binding
B2,binding result,[2],binds
B3,binding result,[3],binds
